Measurements taken from patent publication US20060110769A1, “Regulation of novel human prolyl 4-hydroxylases” (Bayer Aktiengesellschaft, priority 2001, published 2006).

Target: mouse hypoxia inducible factor-1 alpha (mouse) (UniProt Q61221)
Test: cell-based or functional assay

Chain of mouse hypoxia inducible factor-1 alpha (mouse) (Q61221 whole entry): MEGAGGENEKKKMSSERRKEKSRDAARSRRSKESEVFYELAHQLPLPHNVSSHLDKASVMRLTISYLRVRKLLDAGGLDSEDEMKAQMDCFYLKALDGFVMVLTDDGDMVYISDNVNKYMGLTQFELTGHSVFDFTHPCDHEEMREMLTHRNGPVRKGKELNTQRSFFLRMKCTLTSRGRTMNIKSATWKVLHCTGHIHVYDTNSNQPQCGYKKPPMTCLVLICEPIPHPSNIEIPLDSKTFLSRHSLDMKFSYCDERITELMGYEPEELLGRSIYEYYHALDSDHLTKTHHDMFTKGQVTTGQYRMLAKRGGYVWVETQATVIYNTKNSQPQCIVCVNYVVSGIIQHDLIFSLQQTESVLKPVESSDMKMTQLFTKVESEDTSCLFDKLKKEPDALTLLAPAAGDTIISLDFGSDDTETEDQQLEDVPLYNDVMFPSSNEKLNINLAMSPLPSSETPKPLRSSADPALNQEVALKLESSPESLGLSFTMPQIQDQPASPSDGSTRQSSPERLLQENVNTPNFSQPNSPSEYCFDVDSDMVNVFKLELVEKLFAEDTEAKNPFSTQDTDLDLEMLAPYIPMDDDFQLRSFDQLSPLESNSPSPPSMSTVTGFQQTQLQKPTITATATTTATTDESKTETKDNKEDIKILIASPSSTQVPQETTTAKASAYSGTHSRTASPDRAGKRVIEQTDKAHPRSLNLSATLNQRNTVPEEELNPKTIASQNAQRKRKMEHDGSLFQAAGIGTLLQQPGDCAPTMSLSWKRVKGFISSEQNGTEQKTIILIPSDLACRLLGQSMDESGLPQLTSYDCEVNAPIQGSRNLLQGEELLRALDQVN

reduction of the transactivation activity of cotransfected HIF-1 alpha on the hypoxia responsive luciferase reporter (HEK/293 cells, equal amounts of each plasmid): 90%
Substance: EGLN3, human HIF-prolyl-hydroxylase (from UniProt Q9H6Z9 1-239)
